This is an account of results in paper PMC2654206.

What is called pKa is the pH at which an ionisable group is half protonated. One may read the Km as the substrate concentration at which the rate is half of its maximum. A word on the kcat: it is the number of substrate molecules converted per active site and unit of time at saturation. Usually kcat/Km stands for the second-order rate constant that governs catalysis at low substrate concentration.

One series addresses Cys83 (UniProt position 83, ISPMGCRTGFY). To be noted: free enzyme (no substrate or ligand bound); metal form not stated; cited from earlier work.
Series [1] relates to N[C@@H](CCSC[C@@H](O)C(=O)[C@@H](O)CO)C(=O)O. In words: purified protein. To be noted: Co(II) enzyme.
Series [2] has the same test system. Briefly: homocysteine release, DTNB assay. The format is biochemical, Vibrio campbellii. The conditions noted are these: Co(II) enzyme.
Substrate in series [3]: N[C@@H](CCSC[C@@H](O)C(=O)[C@@H](O)CO)C(=O)O
In words: homocysteine release, DTNB assay. It counts as biochemical, Bacillus subtilis. To be noted: Co(II) enzyme.

For “S-ribosylhomocysteinase (LuxS), EcLuxS (Escherichia coli)”, the pKa with Cys83 is given as under 6.
Consider “VhLuxS (Co-VhLuxS) (Vibrio campbellii ATCC BAA-1116)”, for which, in series [1], the Km amounted to 27 ± 2 µM, the kcat came to 0.64 ± 0.02 s⁻¹ and the kcat/Km was found to be 24000 M⁻¹ s⁻¹.
On to “VhLuxS (Co-VhLuxS) (Vibrio campbellii ATCC BAA-1116; C83A)”, for which, in series [2], the Km turned out to be 700 ± 120 µM, the kcat was 0.022 ± 0.002 s⁻¹ and the kcat/Km turned out to be 31 M⁻¹ s⁻¹.
With “VhLuxS (Co-VhLuxS) (Vibrio campbellii ATCC BAA-1116; E57A)”, in series [2], the Km was 98 ± 13 µM, the kcat is 0.012 ± 0.001 s⁻¹ and the kcat/Km amounted to 120 M⁻¹ s⁻¹.
For “VhLuxS (Co-VhLuxS) (Vibrio campbellii ATCC BAA-1116; E57D)”, in that order: 730 ± 120 µM, 0.026 ± 0.003 s⁻¹ and 36 M⁻¹ s⁻¹.
The like results for “VhLuxS (Co-VhLuxS) (Vibrio campbellii ATCC BAA-1116; H11Q)” were, in that order, 520 ± 60 µM, 0.024 ± 0.002 s⁻¹ and 47 M⁻¹ s⁻¹.
The like results for “VhLuxS (Co-VhLuxS) (Vibrio campbellii ATCC BAA-1116; R39M)” were, in that order, 150 ± 20 µM, 0.016 ± 0.001 s⁻¹ and 110 M⁻¹ s⁻¹.
On to “VhLuxS (Co-VhLuxS) (Vibrio campbellii ATCC BAA-1116; S6A)”, for which, in series [2], the Km came out at 40 ± 3 µM, the kcat was 0.14 ± 0.01 s⁻¹ and the kcat/Km was 3400 M⁻¹ s⁻¹.

B1: BsLuxS (Co-BsLuxS) (Bacillus subtilis subsp. subtilis str. 168) (protein)
chain: MPSVESFELDHNAVVAPYVRHCGVHKVGTDGVVNKFDIRFCQPNKQAMKPDTIHTLEHLLAFTIRSHAEKYDHFDIIDISPMGCQTGYYLVVSGEPTSAEIVDLLEDTMKEAVEITEIPAANEKQCGQAKLHDLEGAKRLMRFWLSQDKEELLKVFG
Turning to B1, in series [3], the Km is 3.6 ± 0.1 µM, the kcat amounted to 0.038 ± 0.001 s⁻¹ and the kcat/Km is 11000 M⁻¹ s⁻¹.
